Measurements from patent US20200017592A1 (Regeneron, published 2020).
Numbering of substitutions follows the chain as printed. One block for each binder: values may come before it.

Tests used:
[1] = target: T1, recombinant human IL-36R extracellular domain expressed with a C-terminal myc-myc-hexahistidine tag (human, UniProt Q9HB29 20-337); assay: SPR (Biacore 4000), mAb captured on anti-human Fc, 37°C
T1 construct: also called hIL-36R-MMH; hIL-36R.mmH
Method: (§1) Equilibrium dissociation constants (KD values) for IL-36R binding to purified anti-IL-36R antibodies were determined using a real-time surface plasmon resonance biosensor using a Biacore 4000 instrument. The Biacore sensor surface was first derivatized by amine coupling with a monoclonal mouse anti-human Fc antibody (GE, # BR-1008-39) to capture anti-IL-36R monoclonal antibodies. All binding studies were performed in 0.01 M Hepes pH 7.4, 0.15 M NaCl, 3 mM EDTA, and 0.05% v/v Surfactant Tween-20 (HBS-ET running buffer) at 25° C. and 37° C. Different concentrations of IL-36R reagents, human IL-36R extracellular domain expressed with a C-terminal myc-myc-hexahistidine tag (hIL-36R-MMH), Macaca fascicularis IL-36R extracellular domain expressed with a C-terminal myc-myc-hexahistidine tag (mfIL-36R-MMH: mROR1 signal sequence (M1-A29). Macaca fascicularis IL36R_ecto domain (D20-A336).mycmycHis6), human IL-36R extracellular domain expressed with a C-terminal mouse IgG2a Fc tag (hIL-36R-mFc: mROR1 signal sequence (M1-A29)-human IL36R (D20-Y337)-mouse IgG2aFc (E98-K330)) or an in-line fusion protein of human IL-36R extracellular domain and IL1RAcP extracellular domain expressed with mouse IgG2a Fc tag (hIL-36R-Trap-mFc: mROR1 signal sequence (M1-A29)-human IL36R ecto domain (D20-Y337)-human IL1RacP ecto domain(S21-E359)-mouse IgG2aFc) in HBS-ET running buffer (ranging from 100 nM to 3.7 nM, 3-fold dilutions) were injected over the anti-IL-36R antibody captured surface for 4 minutes at a flow rate of 30 μL/minute and their dissociation in HBS-ET running buffer was monitored for 10 minutes. Kinetic association rate constant (kₐ) and dissociation rate constant (kd) were determined by fitting the real-time sensorgrams to a 1:1 binding model using Scrubber 2.0c curve fitting software. Binding dissociation equilibrium constants (KD) and dissociative half-lives (t_{1/2}) were calculated from the kinetic rate constants as: […]

[2] = target: T2, full-length human IL-36R on cells (human, UniProt Q9HB29 20-575); assay: cell-based or functional assay
T2 sequence (looked up): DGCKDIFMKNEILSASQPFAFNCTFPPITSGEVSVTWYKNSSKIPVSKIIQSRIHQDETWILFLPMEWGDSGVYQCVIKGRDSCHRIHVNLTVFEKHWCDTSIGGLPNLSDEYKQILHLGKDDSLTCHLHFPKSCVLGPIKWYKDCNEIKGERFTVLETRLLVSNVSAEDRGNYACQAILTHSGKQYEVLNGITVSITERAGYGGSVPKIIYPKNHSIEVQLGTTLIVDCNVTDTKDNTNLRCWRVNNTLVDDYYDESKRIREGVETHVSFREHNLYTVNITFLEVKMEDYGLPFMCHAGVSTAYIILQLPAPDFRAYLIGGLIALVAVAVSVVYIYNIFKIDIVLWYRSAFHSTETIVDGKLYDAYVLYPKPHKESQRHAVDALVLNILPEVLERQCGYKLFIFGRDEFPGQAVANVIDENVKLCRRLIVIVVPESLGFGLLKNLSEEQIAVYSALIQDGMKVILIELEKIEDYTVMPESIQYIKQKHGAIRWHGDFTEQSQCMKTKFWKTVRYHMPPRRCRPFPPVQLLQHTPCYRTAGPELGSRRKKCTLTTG

[3] = target: T2, full-length human IL-36R on cells; assay: cell-based or functional assay; remark: listed apart in the source
[4] = target: T1, recombinant human IL-36R extracellular …; assay: SPR (Biacore 4000), mAb captured on anti-human Fc, 25°C
Method: as §1

[5] = target: T3, Macaca fascicularis IL-36R on cells (Macaca fascicularis, UniProt A0A2K5WSK9 20-558); assay: cell-based or functional assay
T3 sequence: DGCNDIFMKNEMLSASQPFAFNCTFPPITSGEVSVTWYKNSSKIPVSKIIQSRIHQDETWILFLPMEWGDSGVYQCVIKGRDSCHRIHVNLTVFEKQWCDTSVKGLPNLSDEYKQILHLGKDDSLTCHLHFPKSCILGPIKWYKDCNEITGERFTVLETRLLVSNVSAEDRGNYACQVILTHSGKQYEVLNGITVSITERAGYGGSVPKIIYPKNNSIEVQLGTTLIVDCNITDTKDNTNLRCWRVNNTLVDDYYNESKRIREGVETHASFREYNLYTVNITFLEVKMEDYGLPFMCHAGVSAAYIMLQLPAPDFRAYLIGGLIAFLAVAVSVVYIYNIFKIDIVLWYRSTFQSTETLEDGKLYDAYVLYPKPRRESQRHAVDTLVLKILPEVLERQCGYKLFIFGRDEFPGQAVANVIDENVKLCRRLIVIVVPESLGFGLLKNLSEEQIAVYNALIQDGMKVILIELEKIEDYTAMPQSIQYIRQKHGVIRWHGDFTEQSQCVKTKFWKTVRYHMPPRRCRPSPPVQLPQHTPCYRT

[6] = target: T4, human IL-36R (IL1RL2) on primary human cells (human, UniProt Q9HB29 20-575); assay: cell-based or functional assay
T4 sequence (looked up): T2 sequence (looked up)

T1 sequence (Q9HB29 other isoform, or with tags, fused parts or gaps limits assumed): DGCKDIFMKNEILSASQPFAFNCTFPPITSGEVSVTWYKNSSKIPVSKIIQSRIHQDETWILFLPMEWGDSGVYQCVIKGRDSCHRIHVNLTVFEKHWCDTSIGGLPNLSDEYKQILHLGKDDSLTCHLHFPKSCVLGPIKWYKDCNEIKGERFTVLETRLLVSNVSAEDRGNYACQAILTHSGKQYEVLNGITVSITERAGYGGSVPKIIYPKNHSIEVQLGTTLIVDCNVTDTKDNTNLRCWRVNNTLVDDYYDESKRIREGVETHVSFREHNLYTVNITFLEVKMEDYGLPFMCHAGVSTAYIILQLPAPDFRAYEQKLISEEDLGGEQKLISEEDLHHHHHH

B1: H4H14706P2 (antibody, human IgG4 S228P, kappa, V domains shown)
VH: EVQLVESGGGLVQPGRSLRLSCTASGFTFDDYAIHWVRQSPGKGLEWVSVISWNSDVIGYADSVKGRFTISRDNAKNSLYLQMNSLRAEDTALYYCAKGYNWNFFDYWGQGTLVTVSS
VL: EIVLTQSPATLSLSPGERATLSCRASQSVSSYLAWYQQKPGQAPRLLIYNAANRATDIPARFSGSGSGTDFTLTISSLEPEDFAVYYCQQRSNWPLTFGGGTKVEIKR
100 nM hIL-36R-MMH Bound (RU) [1]: 113 RU
Kd [1]: 8.65 nM
koff [1]: 0.0013 s⁻¹
kon [1]: 150000 M⁻¹ s⁻¹
t½ [1]: 9 min
IC50, IL-8 production of primary human cells stimulated with 10 nM IL-36α, β and γ [2]: 1 to 6 nM
IC50 [M], NFκB-luciferase, 10 pM hIL-36γ [3]: 1.2e-10 M
IC50 [M], NFκB-luciferase, 15 pM hIL-36β [3]: 1.2e-10 M
IC50 [M], NFκB-luciferase, 20 pM hIL-36α [3]: 1e-10 M
Max Inhibition (%), NFκB-luciferase, 10 pM hIL-36γ [3]: 99%
Max Inhibition (%), NFκB-luciferase, 15 pM hIL-36β [3]: 101%
Max Inhibition (%), NFκB-luciferase, 20 pM hIL-36α [3]: 101%
100 nM hIL-36R-MMH Bound (RU) [4]: 89 RU
Kd [4]: 4.08 nM
koff [4]: 0.000495 s⁻¹
kon [4]: 121000 M⁻¹ s⁻¹
t½ [4]: 23 min
IC50 [M], NFκB-luciferase, 300 pM hIL-36γ [5]: 8.5e-11 M
IC50 [M], NFκB-luciferase, 500 pM hIL-36α [5]: 6e-11 M
IC50 [M], NFκB-luciferase, 600 pM hIL-36β [5]: 1.2e-10 M
Max Inhibition (%), NFκB-luciferase, 300 pM hIL-36γ [5]: 100%
Max Inhibition (%), NFκB-luciferase, 500 pM hIL-36α [5]: 100%
Max Inhibition (%), NFκB-luciferase, 600 pM hIL-36β [5]: 100%

B3: H4H14706P2 (antibody, human IgG4 S228P, kappa, V domains shown)
VH: B1 VH
VL: B1 VL
IC50 [M], IL-8 production, InMyoFib stimulated with 10 nM hIL-36α [6]: 4.89e-09 M
IC50 [M], IL-8 production, InMyoFib stimulated with 10 nM hIL-36β [6]: 3.62e-09 M
IC50 [M], IL-8 production, InMyoFib stimulated with 10 nM hIL-36γ [6]: 4.59e-09 M
IC50 [M], IL-8 production, NHEK stimulated with 10 nM hIL-36α [6]: 4.42e-09 M
IC50 [M], IL-8 production, NHEK stimulated with 10 nM hIL-36β [6]: 3.62e-09 M
IC50 [M], IL-8 production, NHEK stimulated with 10 nM hIL-36γ [6]: 2.11e-09 M
IC50 [M], IL-8 production, PB-derived CD14+ Monocytes stimulated with 10 nM hIL-36α [6]: 1.15e-09 M
IC50 [M], IL-8 production, PB-derived CD14+ Monocytes stimulated with 10 nM hIL-36β [6]: 1.74e-09 M
IC50 [M], IL-8 production, PB-derived CD14+ Monocytes stimulated with 10 nM hIL-36γ [6]: 1.58e-09 M

Next, values leading:

IC50 [M], IL-8 production, InMyoFib stimulated with 10 nM hIL-36α [6]: 5.72e-09 M
IC50 [M], IL-8 production, InMyoFib stimulated with 10 nM hIL-36β [6]: 5.3e-09 M
IC50 [M], IL-8 production, InMyoFib stimulated with 10 nM hIL-36γ [6]: 6.4e-09 M
IC50 [M], IL-8 production, NHEK stimulated with 10 nM hIL-36α [6]: 5.06e-09 M
IC50 [M], IL-8 production, NHEK stimulated with 10 nM hIL-36β [6]: 5.79e-09 M
IC50 [M], IL-8 production, NHEK stimulated with 10 nM hIL-36γ [6]: 3.63e-09 M
IC50 [M], IL-8 production, PB-derived CD14+ Monocytes stimulated with 10 nM hIL-36α [6]: 2.38e-09 M
IC50 [M], IL-8 production, PB-derived CD14+ Monocytes stimulated with 10 nM hIL-36β [6]: 2.24e-09 M
IC50 [M], IL-8 production, PB-derived CD14+ Monocytes stimulated with 10 nM hIL-36γ [6]: 1.95e-09 M
B2: H4H14708P2 (antibody, human IgG4 S228P, kappa, V domains shown)
VH: EVQLVESGGDLVQPGRSLRLSCAASGFTFDDYAMHWVRQAPGKGLEWVSVISWNSDVIAYSDSVKGRFTISRDNAKNSLYLQMNSLRTEDTALYYCTKGHKWSFFDYWGQGTLVTVSS
VL: B1 VL with V29I, Y49F, A51V

100 nM hIL-36R-MMH Bound (RU) [1]: 106 RU
Kd [1]: 13.6 nM
koff [1]: 0.00186 s⁻¹
kon [1]: 136000 M⁻¹ s⁻¹
t½ [1]: 6 min
IC50, IL-8 production of primary human cells stimulated with 10 nM IL-36α, β and γ [2]: 1 to 6 nM
IC50 [M], NFκB-luciferase, 10 pM hIL-36γ [3]: 1.6e-10 M
IC50 [M], NFκB-luciferase, 15 pM hIL-36β [3]: 2e-10 M
IC50 [M], NFκB-luciferase, 20 pM hIL-36α [3]: 1.3e-10 M
Max Inhibition (%), NFκB-luciferase, 10 pM hIL-36γ [3]: 99%
Max Inhibition (%), NFκB-luciferase, 15 pM hIL-36β [3]: 100%
Max Inhibition (%), NFκB-luciferase, 20 pM hIL-36α [3]: 101%
100 nM hIL-36R-MMH Bound (RU) [4]: 76 RU
Kd [4]: 6.82 nM
koff [4]: 0.000623 s⁻¹
kon [4]: 91400 M⁻¹ s⁻¹
t½ [4]: 19 min
IC50 [M], NFκB-luciferase, 300 pM hIL-36γ [5]: 1.2e-10 M
IC50 [M], NFκB-luciferase, 500 pM hIL-36α [5]: 8.9e-11 M
IC50 [M], NFκB-luciferase, 600 pM hIL-36β [5]: 1.2e-10 M
Max Inhibition (%), NFκB-luciferase, 300 pM hIL-36γ [5]: 100%
Max Inhibition (%), NFκB-luciferase, 500 pM hIL-36α [5]: 99%
Max Inhibition (%), NFκB-luciferase, 600 pM hIL-36β [5]: 100%
B4: H4H14708P2 (antibody, human IgG4 S228P, kappa, V domains shown)
VH: B2 VH
VL: B1 VL with V29I, Y49F, A51V
